Results taken from patent US20080293922A1.

Target: β-amyloid peptide Aβ1-40 (Homo sapiens (Human)) (UniProt P05067)
Test: Dissociation of 125I-VEGF165 from resuspended Aβ1-40/VEGF co-aggregate, radioactivity in supernatant

Sequence of Vascular endothelial growth factor VEGF165 (P15692 other isoform, or with tags, fused parts or gaps): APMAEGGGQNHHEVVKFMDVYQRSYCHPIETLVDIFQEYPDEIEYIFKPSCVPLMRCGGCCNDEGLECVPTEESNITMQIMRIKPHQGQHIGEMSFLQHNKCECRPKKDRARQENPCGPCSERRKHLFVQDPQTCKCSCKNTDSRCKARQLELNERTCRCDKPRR

## Vascular endothelial growth factor VEGF165 (from UniProt P15692 207-395) (ligand)
  percent of VEGF released from the Aβ/VEGF complex after 3 days: < 1.5%
